Source: patent US20220195059A1, “Rank Pathway Inhibitors in Combination with CDK Inhibitors” (INSTITUTO DE MEDICINA MOLECULAR JOÃO LOBO ANTUNES, priority 2019, published 2022)

What was measured:
MCF-7 RANK OE xenografts = test: MCF-7^OE orthotopic xenograft growth with exogenous sRANKL; format: in vivo, NSG mice; conditions: human sRANKL 0.5 mg/every 48 h s.c. vs vehicle; eight weeks
Experimental: Nod scid gamma (NSG) mice were inoculated in the 2nd thoracic mammary fat pad with MCF-7 RANK OE GFP+Luc+ (RANK OE) cells (n=3-4/group). Mice were treated with human sRANKL 0.5 mg/every 48 h s.c. or vehicle (PBS). Tumors were imaged by bioluminescence every week post tumor inoculation untill the end of the experience (eight weeks). FIG. 10A is a graph of the total flux (p/s) measured at the end of experiment. FIG. 10B is a graph of tumor weight at the time of sacrifice for tumors derived from MCF-7 OE cells taken from mice treated with (+) or without (−) sRANKL. FIG. 10C is a graph of the Ki67-positive stained cells from tumors derived from MCF-7 OE cells taken from mice treated with (+) or without (−) sRANKL. Data is presented as mean±SEM. p-value was calculated using 2-way ANOVA or unpaired t-test, *p<0.05, **p<0.01, ***p<0.001.
Tumor growth was monitored weekly by luminescence analysis.
To determine whether the decreased proliferation rate was due to RANKL availability, NSG mice were inoculated with one of Parental, RANK OE, or Mix cells, as described above, and treated with human soluble RANKL or vehicle control subcutaneously.

[1] = system: RANKL-driven RANK pathway activation (ERK, AKT phosphorylation); test: RANKL stimulation and RANKL neutralization, western blot; format: cell-based, human; conditions: 1 μg/ml RANKL; serum starved cells
Experimental: It was also confirmed that OPG-Fc is able to neutralize RANKL. Protein expression was assessed by western blot. Cells were seeded in 6-well plates, serum starved for 24 h, and exposed to 1 μg/ml RANKL for the indicated time points (FIG. 26A). For RANKL neutralization (FIG. 26B), RANKL was previously incubated for 60 min at 37° C. in serum-depleted medium±100 ng/ml OPG-Fc or 2.5 μg/ml MAB626, and proteins analyzed after 60 min. β-Actin was used as loading control and band intensity was quantified using FiJi. […] In the presence of OPG-Fc or the anti-RANKL monoclonal antibody MAB626, RANKL-driven RANK pathway activation was decreased (FIG. 26B).
(§1) For this purpose, 4×10^5 cells were seeded in 6-well plates for 24 h, and serum-starved in low-serum medium (0,1% FBS, 1% Pen/Step) for another 24 h. […] Total protein was quantified using Pierce BCA Protein Assay Kit (ThermoSicentific), according to manufacturer's instructions. […]
Membranes were blocked for 1 h at room temperature (RT) in 5% Non-Fat Dry Milk (NFDM) in PBS-0.1% Tween (PBST) for β-actin; or in 5% bovine serum albumin (BSA) (Santa Cruz) for other antibodies. […] Proteins were detected using a Novex® ECL HRP chemiluminescent substrate reagent kit (Invitrogen) according to the manufacturer's instructions, and x-ray films (Fujifilm) developed in a Curix 60 processor (AGFA), or the Amersham™ Imager 680 (GE Healthcare Life Sciences).

[2] = system: phosphorylation of IkBα, NFkB, ERK and AKT in MCF-7 OE and T47D OE cells; test: RANK signalling after sRANKL stimulation of RANK OE cells, western blot; format: cell-based, human; conditions: 1 μg/mL sRANKL
Experimental: FIG. 1C provides data that show the activation of RANK signaling pathway. After 24 h in low-serum medium, MCF-7 and T47D cells, or their RANK-overexpressing counterparts MCF-7^OE and T47D^OE, were stimulated with 1 μg/mL soluble RANK ligand (sRANKL) for 0, 5, 10, 20, 40, or 60 min (top panel) or 0, 5, 10, or 25 min (bottom panel). Cell lysates were western blotted using the antibody specific for the indicated protein (IκBα; NK-κB p65; ERK1/2; AKT), or for a phosphorylated version thereof (p-IκBα (Ser32); p-NK-κB p65 (Ser536); p-ERK1/2; p-AKT). β-Actin was used as loading control.
as §1
Membranes were blocked for 1 h at room temperature (RT) in 5% Non-Fat Dry Milk (NFDM) in PBS-0.1% Tween (PBST) for β-actin; or in 5% bovine serum albumin (BSA) (Santa Cruz) for other antibodies. […] Proteins were detected using a Novex® ECL HRP chemiluminescent substrate reagent kit (Invitrogen) according to the manufacturer's instructions, and x-ray films (Fujifilm) developed in a Curix 60 processor (AGFA), or the Amersham™ Imager 680 (GE Healthcare Life Sciences). […]

B1: sRANKL: soluble RANK ligand used as stimulus (protein)
chain: EKAMVDGSWLDLAKRSKLEAQPFAHLTINATDIPSGSHKVSLSSWYHDRGWAKISNMTFSNGKLIVNQDGFYYLYANICFRHHETSGDLATEYLQLMVYVTKTSIKIPSSHTLMKGGSTKYWSGNSEFHFYSINVGGFFKLRSGEEISIEVSNPSLLDPDQDATYFGAFKVRDID
With B1 the tumor growth (MCF-7 RANK OE xenografts) was “did not affect”, the “phosphorylation of RANK-downstream factors, like ERK and AKT” value [1] was “drives the phosphorylation” and the “RANK pathway activity after stimulation” value [2] was “increased RANK pathway activity”.
